Assay results published in a protein production outcome set (Wang et al. 2014).

Assay: label from the status in PepcDB records

| Sequence | protein production |
| --- | --- |
| MTPVLSLDMEDPIRFIDENGSFEVVKVGHNLAIHGKKIFDELAKRNLKIILDLKFCDIPSTVERSIKSWDHPAIIGFTVHSCAGYESVERALSATDKHVFVVVKLTSMEGSLEDYMDRIEKLNKLGCDFVLPGPWAKALREKIKGKILVPGIRMEVKADDQKDVVTLEEMKGIANFAVLGREIYLSENPREKIKRIKEMRL | not failed |
| MKIAIAGAGAMGSRLGIMLHQGGNDVTLIDQWPAHIEAIRKNGLIADFNGEEVVANLPIFSPEEIDHQNEQVDLIIALTKAQQLDAMFKAIQPMITEKTYVLCLLNGLGHEDVLEKYVPKENILVGITMWTAGLEGPGRVKLLGDGEIELENIDPSGKKFALEVVDVFQKAGLNPSYSSNVRYSIWRKACVNGTLNGLCTILDCNIAEFGALPVSESLVKTLISEFAAVAEKEAIYLDQAEVYTHIVQTYDPNGIGLHYPSMYQDLIKNHRLTEIDYINGAVWRKGQKYNVATPFCAMLTQLVHGKEELLGAK | not failed |
| MCNDTATPQLEELVTTVANQLMTVDAATSAEVSQRVLAYLVEQLGVDVSFLRHNDRDRRATRLVAEWPPRLNIPDPDPLRLIYFADADPVFALCEHAKEPLVFRPEPATEDYQRLIEEARGVPVTSAAAVPLVSGEITTGLLGFIKFGDRKWHEAELNALMTIATLFAQVQARVAAEARLRYLADHDDLTGLHNRRALLQHLDQRLAPGQPGPVAALFLDLDRLKAINDYLGHAAGDQFIHVFAQRIGDALVGESLIARLGGDEFVLIPASPMSADAAQPLAERLRDQLKDHVAIGGEVLTRTVSIGVASGTPGQHTPSDLLRRADQAALAAKHAGGDSVAIFTADMSVSGELRNDIELHLRRGIESDALRLVYLPEVDLRTGDIVGTEALVRWQHPTRGLLAPGCFIPVAESINLAGELDRWVLRRACNEFSEWQSAGLGHDALLRINVSAGQLVTGGFVDFVADTIGQHGLDASSVCLEITENVVVQDLHTARATLARLKEVGVHIAIDDFGTGYSAISLLQTLPIDTLKIDKTFVRQLGTNTSDLVIVRGIMTLAEGFQLDVVAEGVETEAAARILLDQRCYRAQGFLFSRPVPGEAMRHMLSARRLPPTCIPATDPALS | failed |
| MNNPDLPYRQALECLSQKQYNFTEVRRLLTEAFSAGHPAAAFELAKHLMDADSPYQDREQGMEMLRIAAEQGHPYARYNLAYIQELEGAPPETLIPLYRPLAEEGLPEAQVRLMYLLYASRHFEEALEWAKTSAKNNNPHGQYLLAQYCRYGTPPDFETAHLLYRKSAAQGLPEAHWQLGLQYRFGQGTKVDTAQAVNHLRAAAQQGYIPAYTPLAELILPTAPDEAVHWFQQAAQENDPDAHAALADIYLQGKHLERNHKLALHHAEAAAAERHPEGLRILGDICRYGLGIAPDTEKARHYYRQAAEAGSLSAYQKLISDSALNHPDQYGGIKDSAIRRQRAERLYQKAQALHYGLQCAPEYAAALKLYTEAAELGHSKAQTNLGSMYYFGQGMTADYNEARKWFEKAAAKKDSMAFYNLACIHYSGHGVEPDKEKACRYLQEAINNGYGQKSVLQELLQQWQNAV | failed |
| MVRKLRHFGDRLREEPDKFRFVLSRALWVTGLCRLITFSFPAGYRMRFYPSAISAGLWRDRNFRSEDADFVAGYLRPGETFVDVGANVGQLSLVAARRVTSSGRTIAIEAHPRTCNFLRGNVRLNGLPIEIHNVAVGSECGELFFTNFRSDDMNFAYAASPRNGSALRVPVATLDSIIGERPVDLLKVDVEGFECDLLRGAAQTLHNCRCLYIEDSEPNLRRAGSSRVELYDRLSEGGFELFHVRGKRLERVSVQAAGPLTENLIAVRGSDLPDALARTGFCLA | failed |
| MTEKRRRLPRPEKAILWPASYLHHRSVTQQLPIMSTPHTDFFGLTIPFMQLLGVVPEHSGNGTARTRLPARADLVNSRGDIHGGTLMSVLDFTLGAAIRGDTPEVGVATIDMNTSFMSPGRGDLVIETRCLRRGASIAFCEGEIRDSAGELVAKATATFKIIQRRPGGD | failed |
| MITGTLINALTVVFASLLGLAIGSRLSESIRGAIINVLGLAVLLIGISMALETKNVLIPTLSVVAGTAVGEVMGIEKALQSFGDRVERRLGKGRFSEGFVAATLLYCVGPMAILGPIQEGLTGDMSVLMAKSLLDGVASVALASALGIGVAFSSISILVYQGFFALLAAQLSSVVTERIIAEFTSTGGLLIMGIGINLLELRKLRVGNMLPALIFAPLIVAVLQLTGL | failed |
| MMKTMDIIIPREFVSDDQYLLQKLCVVNNDFVKEGEILALIESSKSVIDVTSPADGYVYFFSDEGDIVSVGERLALLASTKEALQVEIENSNKNSQRRKESETKSEDVSLSGVRCSKKALLLMKQHNIDVGAFDGLGMVTAQDVEHYLSSREKAVKATVAPSSVNRQKIIILGGGGHSKVCIDILRQAQSFTIAGILDSIQDIGAEVLGIPVIGRDTMPELLKTRESGISLAVNGIGLIPDHRNRCKLFERLLEAGFHLPNLIHPKASIEPSAKLGEGNQIMAGAIIGSDVTVGNYCLINSGVVVSHDCIIDDHVHLAPGALLAGAVRVGRNSLIGMGVTIYAKVTIGSNVVIANGANVFHDVPDNTVVKI | failed |
| MGSLRLLADIQGEDLESLYGYAKQLFDGGEIAAARNVYQLLSTLDHWNFDYLLALGLCHQRLGAHNEAVVCFGRAGLIKVDDPRAAFYAGISYRLDGNAEYASKAFKAAINWCGEQIDYQAIKASAVDMLALQQEEVPLEHHHHHH | failed |
| MRDTIPVTILSGSLGAGKTTLLNHLLTEAGDRDIAVLVNDMGTVNVDAELIAEGSELDVDDGVAELSNGCICCELQDDLETAVVRLADDRDFDALVVESSGISEPAPVARLFTTESRVAALYRVDTLVTVLDTRLFLDSFAGETPERRGSGEASADGDGDDTEADGADRPLSDLMVEQVELSNLVVLNKTDLCTDEEMDEAEELVRALQPDAETIRTTFSQVDPDRLFDRALFDQTEISDLPGWKRALAESGHGHGEGSHDHGGDSHETDAHEGDTGHGHDDHHHPEEVYGVTSFTYRRRRPFHPDRLAEVLQDLPSGVVRSKGTVWLAGSERRVVIGQAGPSIRAEAQGPWIASLPEVEQDMYRSNRPELDWHDEHGDRRTELVFIGTDYDESALRTALDDALVTDEEWTESESLTGPFPAEQGEEAVIRSP | not failed |
| MSEKKAVIGVVTISDRASKGIYEDISGKAIIDYLKDVIITPFEVEYRVIPDERDLIEKTLIELADEKGCSLILTTGGTGPAPRDVTPEATEAVCEKMLPGFGELMRQVSLKQVPTAILSRQTAGIRGSCLIVNLPGKPQSIKVCLDAVMPAIPYCIDLIGGAYIDTDPNKVKAFRPKK | not failed |
| MDVRQRLISSMVISLGLTIISEGIVLIGIASLLHISLFFIFPALVIFWLFQWIISPYVVGRGGYEVSPNDPQYGWLYNLVRRIAEESKIKPPRVFVIDAPYPNAFAYGNRLGGMRVGITLPLLNILDVDELTAVIAHEVGHIKHRDVEIGMTIGLIPTVLGYISTLLMNFGYLALFLAADEIELLFAIAALAIGFVIFVVTFILQIFVLWFNRLRESYADYNSFLVLGEGSKALATALAKIEIYMQNIRIDPFTGIIVTAPPVKVEEKDPHLLVEQWLRTKVSAFKDILSTHPYPARRAQMIYRLIYGSNI | failed |
| MKLLLIGYGNVGKAFRRLLHEKKDNYPILQGVEIAGIITRQGLMVGDKENFSPDKQLTVLEAIDYINPDVIVDMSVPNYKDGEPSVSAYIKALSRKIHVITVNKAPLALKFREIFEVAEKTGAKIGFQGTVMSGTPSINLFRIQPVAEVSRIRGILNGTTNYILTRIYEGLSFNEALKEAKEKGYAEEDPTLDLNGFDAAAKLTILSNFIMNRSLKLGDFKFKGITEITNEEIRRAKSEGKKIKLIAYADNYVVQVSPQIIGPQDPLYYIDGVENALEIQNEIQRIIIRGPGAGPINAAYGALSDLVLLLEGCL | failed |
| MLTKFKSLPKAVYAILALSFLLHVFCLVKQPGLDGELVKVTYGANDAFNYSLTAEQLLKHGVFGYVYLEPSEVPGKNAYITPGQPLLLAGAMIISDITSIPYYYVATVINMIMNLCTVLLVFLIGKELFEKNIYGIVASILYAIYPSNYTYFRTLLTEVPSIFLLALCVYVFVLAWKYNKVKFHIWFGIVVSILLMFRPNPAPMMLIPVLVVLFTYGFKDSIRIGLLWFIGPFFIIGAWVVRNYLALNQFILFSTQGADPLIAGADPFNKIGYENIVNEMRAKGLDDKGAYAKELIKNGFKTDFTYWFSWFTVGKTIELFKTAPAVDQYRIHNFMQLCHRVFIIGTFLSSFCFMLNSFKHKRVMMLVASSIIYIIFSNLFLAINRYGFFINPLMCLILAYGLIHIVQKLPFFRTNQA | failed |
| MGVALLLLVGGAELLVRSALRLAQRLHVRPLIIGLSLVAFGSTAPQLTVSLQAAYQGAPDVAVGSVIGSNIFNVLVILGLAALIIPLRVSRQLVRLDIPLMILASGLVYALSANAHLGRVEGALLLLGLAGYLAMLWHQSRHYARTYPAPDAARSGAGRFWSGTLLQILVGLGLLSLAGHLLLEAAIEVATDLGLSERIIGLTVVAICTSLPELAAALIAALRGEREIAVGTVIGSNLFNLLAVLGLTALITPEPLSISPNALSFDLPVMLGVAALSLPVFYSGYRITRAEGLVFLCLYLAYGLHVAAFTMGMPLAGRLERLMLFYVLPVLATVLLYTTVRAWRRQH | failed |
| MSPLASRALSFLGALSLLTFAATPVLAESTPTAAPPQFAVESPKAASSLLLSVAHAGKRLVAVGDRGHILLSDDDGKTWTQAKVPTRQLLTSVFFVNERKGWAVGHDAQILVSDDAGSTWARQFEDLGREAPLLDIWFADEQHGLAVGAYGALLETRDGGQHWEDVSERLDNEDQFHLNAIAAVKDNGLLVVGEAGSLFRSKDWGATWEKLEGPYEGSLFGAIGTADAGGVLVYGLRGHLFRSADFGDSWEEIPLKAASGDLEFGLSDGALLADGRIVVVGHGGSVLESTDGGRSFSVFNRPDRLSLAGVSATGDGHLILVGQGGVHLAAANGAALEQQQLEHHHHHH | failed |
| MSQVRQVGLLAAGCQPWNKDVCAANGDRFAYCATLAIYIYQLDHRYNEFRLHAIMAEHKKTITAISWCPHNPDLFASGSTDNLVIIWNVAEQNVIAKLDNIKETPACLSWCWNTGDAVAFVSQKGPLLIWTISGPDSGVSVHKEAHGFVSDICIFRWHTQKKGKVAFGHTDGSISIFQPDEDDPVTALEWDPLSTDYLLVANLHYGIRLLDSESLYCITTFSFPSAAVSVQCLAWVPSAPGMFITGDSQVGVLRIWNVSRTTPIDSFKLKKAGFHCLHVVNSPPKRKFSVQSSNKNHYMSSTSEAVPPPSLTRNQAFSLPPGHVVCCFLDGGVGLYDMGAKKWDFLRELGHVETIFDCKFKPDDPNLLATASFDGTIKVWDINTLTAVYTSPGNEGVIFALSWAPGDLNCIAGATSRNGAFIWDIQKGKMIQRFNEHGKNGIFYIAWSHKDSKRIATCSGDGFCIIRTLDGKLLHKYKHPAAVFGCDWSQNNKDMIATGCEDKHVRVFYVASSSNQPLKVFSGHTARVFHVKWSPLREGVLCSGSDDGSVRIWDYTQDACISILNGHTAPVRGLMWNTEIPYLLISGSWDYTIKVWDTRGGVCLDTVYDHGADVYGLTCHPSRPFTMASCSRDSTVRLWSLIPLITPLQINILADRPWEEIIGNTDNAIEQASPPLLCGKASKDIKQEVEKLTCNPRVKKLRLFSECLSSPGGSDNLWNLVAVIKGQDDSLLPQNYYKGMMHLKHLIKFRTSEAQELTTIKMSKFGGGIGAPTKENKLKEAAEIHLRLGQIQRYCELMVELGEVA | failed |
| MAEVHVIGQIMGASGFSESSLFCKWGIHTGAAWKLLSGVREGQTQVDTPQIGDMAYWSHPIDLHFATKGLQGWPRLHFQVWSQDSFGRCQLAGYGFCHVPSSPGTHQLACPTWRPLGSWREQLARAFVGGGPQLLHGDTIYSGADRYRLHTAAGGTVHLEIGLLLRNFDRYGVEC | failed |
| SSGVIAFDEGFRVTTVNQGAQTILQADLRSVIGRPLETVDGMLEFAQVVRQAFAAHAAVGSERLHWQQQFEITPGLDETGGQPVTLLARGTHLRVD | failed |
| MKMNNTKEYSIRTPSLGNLPPGTTGTCCPPPLVFPLLPLSPPPSPPPSPSSPPRLPPPFPALFPPEPPLPPRFELPPPLFPPPPLPRLPPPLLPPPEEPPREPPPPPPPPEEPPPPASCLRTKSPENGIVSTVK | failed |
